Source: paper PMC10762068, “Selective blockade of Cav1.2 (α1C) versus Cav1.3 (α1D) L-type calcium channels by the black mamba toxin calciseptine” (Nature Communications, 2024)

Experiments:
[1] = tested on: Cav1.2 and Cav1.3; details: cited from earlier work
Excerpt: Despite the importance of dissecting the physiopathological roles of Cav1.2 and Cav1.3 channels in cardiac myocytes and neuronal cells, no selective pharmacological tool is currently available. […] Both distinct and complementary functions for Cav1.2 and Cav1.3 have been proposed in the central nervous system. For example, Cav1.2 is involved in hippocampal firing, spatial memory and LTP[52], as well as in the myelinisation process.

[2] = tested on: total ICaL (ICav1.2+ICav1.3) in SAN myocytes from wild-type mice; experiment: ICaL, patch clamp, SAN myocytes from wild-type mice; type: cell-based, mouse; details: nifedipine 3 µM after Cas 1 µM; holding −55 mV
Procedure: (§1) Hearts from Wild-Type and Cav1.3^−/− mice were removed under general anesthesia consisting of 0.01 mg/g xylazine (2% Rompun; Bayer AG) and 0.1 mg/g ketamine (Imalgène;Merial) and immersed in a pre-warmed (36 °C) Tyrode solution containing (mM): 140 NaCl, 5.4 KCl, 1 MgCl2, 1.8 CaCl2, 5.5 D-glucose, and 5 Hepes (adjusted to pH 7.4 with NaOH). […] SAN tissue was excised and transferred into a low-Ca^2+ solution containing (mM): 140 NaCl, 5.4 KCl, 0.5 MgCl2, 0.2 CaCl2, 1.2 KH2PO4, 50 taurine, 5.5 D-glucose, 1 mg/mL BSA, and 5 Hepes–NaOH (adjusted to pH 6.9 with NaOH) for 5 min. Then, enzymatic digestion was carried out for 20-25 min at 36 °C in the low-Ca^2+ solution containing LiberaseTH Research Grade (0.15 mg/mL; Roche, Mannheim, Germany) and elastase (0.5 mg/mL; Worthington, Lakewood, NJ, USA). Digestion was stopped by washing the SAN in a “Kraftbrühe” (KB) medium containing (mM) 100 K-glutamate, 10 K-aspartate, 25 KCl, 10 KH2PO4, 2 MgSO4, 20 taurine, 5 creatine, 0.5 EGTA, 20 D-glucose, 5 Hepes, and 1 mg/mL BSA (adjusted to pH 7.2 with KOH). Single SAN cells were then dissociated from the SAN tissue by manual agitation using a flame-forged Pasteur’s pipette. To recover the automaticity of the SAN cells, Ca^2+ was gradually reintroduced in the cell’s storage solution to a final concentration of 1.8 mM. SAN cells were then left to rest for 1 h before recordings.
(§2) For patch-clamp recordings of SAN myocytes, cells were harvested in custom-made chambers with glass bottoms for cell attachment. Cells were then super-fused with Tyrode’s solution warmed at 36 °C before recording. Action potentials and ionic currents were recorded using an Axon multi-clamp patch-clamp 700B amplifier. Voltage-gated L-type Ca^2+ currents (ICaL) were recorded using standard whole cell patch-clamp configuration. For recording ICaL, we used an extracellular recording solution contained (mM): 135 tetraethylammonium chloride (TEA-Cl), 10 4-aminopyridine (4-AP), 1 MgCl2, 0.03 tetrodotoxin (TTX), 1 g/L Glucose, 2 CaCl2, 10 Hepes, (adjusted to pH = 7.2 with TEAOH). […] Pacemaker activity was recorded by the perforated patch-clamp technique using escin (40 µg/ml). For recording cell automaticity glass pipettes were filled with the intracellular solution contained (mM): 80 K-Aspartate, 50 KCl, 1 MgCl2, 5 HEPES, 2 CaCl2, 5 EGTA, 3 ATP-Na+ salt; pH was adjusted to 7.2 with KOH. Escin was dissolved in sterile H2O and added to the intracellular solution right before each experiment.
(§3) In all experiments of cellular electrophysiology, we employed synthetized analog of Cas, commercially available at Latoxan (ID: L8109). The native peptide was purified from the venom of Dendroaspis polylepis purchased from Latoxan, as previoulsly described. The pure peptide was obtained after gel filtration, cation exchange and C18 reversed phase chromatography. Its measured molecular mass (7036.26 Da average) was in accordance with the mass calculated from sequence data (7036.22 Da).

[3] = tested on: SAN myocytes from Wild-Type mice; experiment: Spontaneous action potentials, perforated patch-clamp, SAN pacemaker myocytes; type: cell-based, mouse; details: nifedipine (in Table 1 only 3 µM together with Cas)
Procedure: as §1, §2
We used an extracellular recording solution (Tyrode’s based) contained (mM): 140 NaCl, 5.4 KCl, 1 MgCl2, 1.8 CaCl2, 5 HEPES, 5.5 D-Glucose; pH was set to 7.4 with NaOH. AP parameters have been calculated as reported in Baudot et al.[10]. Data were analyzed using pCLAMP9 (Molecular Devices) and GraphPad Prism (GraphPad) software.
as §3

[4] = tested on: Cav1.2 (ICav1.2) in isolated adult mouse ventricular myocytes; type: cell-based; details: L-calchin 5 µM; preliminary; n=7/N=2
[5] = tested on: calcium channel in rabbit cardiac myocytes; details: reduction of calcium channel amplitude; cited from earlier work
Excerpt: (§4) A common short peptide between two Prolines at position 42 and 47 (PTAMWP) was predicted as the binding site for Cas and FS2 by Kini and co-workers[49]. […] Similar to Cas, block by L-calchin had no ef ...

[6] = tested on: isolated rat hearts; details: cited from earlier work
Excerpt: as §4

[7] = target: native mouse Cav1.2 L-type calcium channel in cardiac myocytes (mouse (endogenous in cardiac myocytes)) (UniProt Q01815)
[8] = target: recombinant Cav1.2 (α1C) L-type calcium channel, Cav1.2-GFP (UniProt Q13936)
[9] = target: native mouse Cav1.2 L-type calcium channel in cardiac myocytes (mouse (endogenous in cardiac myocytes)) (UniProt Q01815); remark: listed apart in the source
[10] = target: native mouse Cav1.2 L-type calcium channel in cardiac myocytes (mouse (endogenous in cardiac myocytes)) (UniProt Q01815); remark: listed apart in the source

Sequence of native mouse Cav1.2 L-type calcium channel in cardiac myocytes (mouse (endogenous in cardiac myocytes)) (Q01815 whole entry): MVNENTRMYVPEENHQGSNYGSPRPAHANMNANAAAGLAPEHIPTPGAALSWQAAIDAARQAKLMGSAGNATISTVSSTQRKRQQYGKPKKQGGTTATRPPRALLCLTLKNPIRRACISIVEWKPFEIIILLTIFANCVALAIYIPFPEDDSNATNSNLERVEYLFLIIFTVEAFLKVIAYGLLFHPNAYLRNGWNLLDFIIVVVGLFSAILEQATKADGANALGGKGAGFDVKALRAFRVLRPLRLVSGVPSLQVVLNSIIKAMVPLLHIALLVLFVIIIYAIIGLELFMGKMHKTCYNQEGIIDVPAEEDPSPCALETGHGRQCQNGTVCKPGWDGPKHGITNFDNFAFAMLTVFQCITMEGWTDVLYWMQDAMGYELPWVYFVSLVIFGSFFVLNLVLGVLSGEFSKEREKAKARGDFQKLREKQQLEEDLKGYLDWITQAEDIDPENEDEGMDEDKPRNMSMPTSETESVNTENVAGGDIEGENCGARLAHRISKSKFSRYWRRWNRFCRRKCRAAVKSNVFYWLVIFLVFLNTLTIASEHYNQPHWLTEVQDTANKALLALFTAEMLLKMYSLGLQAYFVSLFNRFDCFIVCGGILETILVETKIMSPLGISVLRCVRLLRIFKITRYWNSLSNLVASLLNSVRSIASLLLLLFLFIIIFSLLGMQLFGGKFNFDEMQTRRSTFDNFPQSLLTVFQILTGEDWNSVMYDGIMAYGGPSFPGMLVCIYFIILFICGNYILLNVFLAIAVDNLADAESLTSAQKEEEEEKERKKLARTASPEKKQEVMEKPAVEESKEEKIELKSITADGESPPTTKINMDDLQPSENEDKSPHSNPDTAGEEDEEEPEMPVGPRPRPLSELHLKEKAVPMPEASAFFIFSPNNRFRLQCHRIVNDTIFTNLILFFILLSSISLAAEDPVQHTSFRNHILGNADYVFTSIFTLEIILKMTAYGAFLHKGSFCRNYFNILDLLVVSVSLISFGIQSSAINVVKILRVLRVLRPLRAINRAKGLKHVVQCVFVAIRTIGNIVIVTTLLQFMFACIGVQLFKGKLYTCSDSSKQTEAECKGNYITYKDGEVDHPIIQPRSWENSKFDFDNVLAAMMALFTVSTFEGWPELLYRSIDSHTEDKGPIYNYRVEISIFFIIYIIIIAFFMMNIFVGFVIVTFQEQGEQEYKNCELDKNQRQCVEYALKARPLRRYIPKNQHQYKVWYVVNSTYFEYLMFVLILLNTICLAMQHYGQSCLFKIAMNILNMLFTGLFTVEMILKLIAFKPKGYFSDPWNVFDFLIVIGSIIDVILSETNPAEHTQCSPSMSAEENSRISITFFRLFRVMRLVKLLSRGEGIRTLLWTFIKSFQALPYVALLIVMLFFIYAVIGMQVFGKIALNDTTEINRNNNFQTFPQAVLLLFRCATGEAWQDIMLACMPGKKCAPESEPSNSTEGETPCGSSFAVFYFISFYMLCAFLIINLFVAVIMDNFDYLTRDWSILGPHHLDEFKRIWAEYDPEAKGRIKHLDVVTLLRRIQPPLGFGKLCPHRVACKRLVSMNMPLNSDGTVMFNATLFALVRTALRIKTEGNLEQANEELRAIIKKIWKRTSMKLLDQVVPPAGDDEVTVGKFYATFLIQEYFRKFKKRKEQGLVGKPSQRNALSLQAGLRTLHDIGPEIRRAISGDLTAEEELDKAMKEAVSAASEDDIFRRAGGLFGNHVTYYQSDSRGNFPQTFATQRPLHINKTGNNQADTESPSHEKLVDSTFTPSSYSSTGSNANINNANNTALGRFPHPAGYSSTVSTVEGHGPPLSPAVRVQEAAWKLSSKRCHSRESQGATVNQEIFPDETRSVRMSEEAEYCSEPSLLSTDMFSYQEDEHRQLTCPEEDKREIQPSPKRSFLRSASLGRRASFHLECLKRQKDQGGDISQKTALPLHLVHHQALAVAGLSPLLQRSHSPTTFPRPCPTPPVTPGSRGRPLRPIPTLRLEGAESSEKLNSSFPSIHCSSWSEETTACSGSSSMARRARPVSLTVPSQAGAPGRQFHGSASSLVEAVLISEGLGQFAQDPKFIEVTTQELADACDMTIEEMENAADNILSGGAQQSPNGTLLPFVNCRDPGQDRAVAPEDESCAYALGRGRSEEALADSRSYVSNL
Sequence of recombinant Cav1.2 (α1C) L-type calcium channel, Cav1.2-GFP (Q13936 other isoform, or with tags, fused parts or gaps): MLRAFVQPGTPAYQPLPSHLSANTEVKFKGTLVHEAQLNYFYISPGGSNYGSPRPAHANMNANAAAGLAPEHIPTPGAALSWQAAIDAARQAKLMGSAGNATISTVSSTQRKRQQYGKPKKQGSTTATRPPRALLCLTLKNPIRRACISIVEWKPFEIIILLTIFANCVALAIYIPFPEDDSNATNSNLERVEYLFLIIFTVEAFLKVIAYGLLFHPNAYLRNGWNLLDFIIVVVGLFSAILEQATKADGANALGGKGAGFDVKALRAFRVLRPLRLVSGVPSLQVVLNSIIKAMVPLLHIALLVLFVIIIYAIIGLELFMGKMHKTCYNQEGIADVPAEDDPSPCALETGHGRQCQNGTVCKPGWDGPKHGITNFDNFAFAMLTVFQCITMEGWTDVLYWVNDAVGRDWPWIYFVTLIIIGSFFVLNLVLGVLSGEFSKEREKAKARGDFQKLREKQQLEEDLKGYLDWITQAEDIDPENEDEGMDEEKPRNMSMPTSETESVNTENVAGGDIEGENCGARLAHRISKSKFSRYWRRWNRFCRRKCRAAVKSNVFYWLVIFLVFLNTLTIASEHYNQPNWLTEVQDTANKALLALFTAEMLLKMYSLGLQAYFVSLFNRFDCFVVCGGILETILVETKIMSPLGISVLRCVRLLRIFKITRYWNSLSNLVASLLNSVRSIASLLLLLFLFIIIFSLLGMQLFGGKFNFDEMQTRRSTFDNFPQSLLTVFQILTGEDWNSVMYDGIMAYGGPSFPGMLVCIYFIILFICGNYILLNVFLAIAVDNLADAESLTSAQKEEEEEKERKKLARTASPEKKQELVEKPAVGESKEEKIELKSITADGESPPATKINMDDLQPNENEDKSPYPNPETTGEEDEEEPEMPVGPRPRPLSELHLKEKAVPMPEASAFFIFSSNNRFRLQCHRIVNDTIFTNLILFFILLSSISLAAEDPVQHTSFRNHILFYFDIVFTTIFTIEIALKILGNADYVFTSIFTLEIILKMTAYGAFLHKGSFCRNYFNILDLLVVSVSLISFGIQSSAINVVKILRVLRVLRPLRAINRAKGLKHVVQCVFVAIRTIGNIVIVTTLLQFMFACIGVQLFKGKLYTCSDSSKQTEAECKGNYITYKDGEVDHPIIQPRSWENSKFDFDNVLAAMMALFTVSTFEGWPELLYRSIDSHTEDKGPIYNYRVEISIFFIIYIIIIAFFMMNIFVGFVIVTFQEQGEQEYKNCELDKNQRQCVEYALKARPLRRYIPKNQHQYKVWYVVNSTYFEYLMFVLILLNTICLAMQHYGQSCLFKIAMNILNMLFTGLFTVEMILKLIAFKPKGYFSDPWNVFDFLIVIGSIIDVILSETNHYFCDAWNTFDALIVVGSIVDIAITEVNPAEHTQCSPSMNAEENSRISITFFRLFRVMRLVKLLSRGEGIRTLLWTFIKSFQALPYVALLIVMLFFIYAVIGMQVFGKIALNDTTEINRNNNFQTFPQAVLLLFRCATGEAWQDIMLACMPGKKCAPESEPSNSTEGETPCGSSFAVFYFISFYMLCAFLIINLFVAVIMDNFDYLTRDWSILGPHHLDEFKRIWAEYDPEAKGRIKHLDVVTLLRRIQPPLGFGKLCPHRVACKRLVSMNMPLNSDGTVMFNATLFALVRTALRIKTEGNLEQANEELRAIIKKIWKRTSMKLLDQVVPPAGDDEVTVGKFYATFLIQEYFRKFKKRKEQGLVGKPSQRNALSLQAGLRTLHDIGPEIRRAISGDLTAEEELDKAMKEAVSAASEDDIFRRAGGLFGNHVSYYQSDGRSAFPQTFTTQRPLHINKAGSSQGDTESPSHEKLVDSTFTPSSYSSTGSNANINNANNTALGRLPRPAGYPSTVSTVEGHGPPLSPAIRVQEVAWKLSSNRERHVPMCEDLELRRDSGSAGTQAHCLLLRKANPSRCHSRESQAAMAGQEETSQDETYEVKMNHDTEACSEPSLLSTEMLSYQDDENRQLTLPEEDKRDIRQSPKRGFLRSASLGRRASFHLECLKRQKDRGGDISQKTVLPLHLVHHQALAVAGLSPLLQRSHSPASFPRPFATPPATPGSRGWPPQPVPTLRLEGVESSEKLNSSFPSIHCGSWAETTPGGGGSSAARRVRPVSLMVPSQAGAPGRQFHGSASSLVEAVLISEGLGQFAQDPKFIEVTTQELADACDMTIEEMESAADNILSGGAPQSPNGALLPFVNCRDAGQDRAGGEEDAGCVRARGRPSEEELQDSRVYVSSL

Question: For `COc1ccc([C@@H]2Sc3ccccc3N(CCN(C)C)C(=O)[C@@H]2OC(C)=O)cc1` [Diltiazem], which “selectivity between Cav1.2 and Cav1.3” value [1] is on record?
Answer: Its value is “without significant selectivity”.

Question: Which “selectivity between Cav1.2 and Cav1.3” value [1] does the source give for `COc1ccc(CCN(C)CCCC(C#N)(c2ccc(OC)c(OC)c2)C(C)C)cc1OC` (stereo not drawn) [Verapamil] here?
Answer: Its value is “without significant selectivity”.

Question: Which results are given for `COC(=O)C1=C(C)NC(C)=C(C(=O)OC)C1c1ccccc1[N+](=O)[O-]` [nifedipine, reference compound]?
Answer: block of residual ICaL (Cav1.3-mediated) [2]: totally blocked; effect on pacemaker activity of SAN myocytes [3]: robustly slows pacemaker activity

Question: For “PTAMWP [L-calchin, short peptide between two Prolines at position 42 and 47 (PTAMWP) of Cas and FS2]”, which “reduction of ICav1.2” value [4] is on record?
Answer: The value was “≈ 30%”.

Question: And the IC50 [5]?
Answer: The IC50 was ~5 µM.

Question: And the “effect on peak systolic pressure” value [6]?
Answer: Its value is “reducing peak systolic pressure”.

Question: And the “effect on heart rate” value ([6]; ex vivo)?
Answer: Its value is “had no effect on heart rate”.

Question: With PTAMWP [L-calchin] as the molecule, how does the reduction of I (Cav1.2) in dissociated mouse ventricular myocytes by synthetic L-calchin (preliminary experiments; concentration not stated) [7] read?
Answer: The reduction of I (Cav1.2) in dissociated mouse ventricular myocytes by synthetic L-calchin (preliminary experiments; concentration not stated) was 30%.

B1: calciseptine, synthetized analog (Latoxan L8109) (peptide)
chain: RICYIHKASLPRATKTCVENTCYKMFIRTQREYISERGCGCPTAMWPYQTECCKGDRCNK
Question: Which IC50 of inhibition of I (Cav1.2), whole-cell patch clamp on transfected HEK-293T cells (holding potential −60 mV, test 0 mV), dose-effect relationship [8] does the source give for B1 here?
Answer: The IC50 of inhibition of I (Cav1.2), whole-cell patch clamp on transfected HEK-293T cells (holding potential −60 mV, test 0 mV), dose-effect relationship was 0.092 µM.

Question: What about the inhibition of I (Cav1.2) in averaged current-to-voltage relationships, 300 nM Cas, membrane voltages from −20 mV to +30 mV, transfected HEK-293T cells [8] of the same molecule?
Answer: Its inhibition of I (Cav1.2) in averaged current-to-voltage relationships, 300 nM Cas, membrane voltages from −20 mV to +30 mV, transfected HEK-293T cells is 60%.

Question: And the percent inhibition of I (Cav1.2) in transfected HEK-293T cells, one-step protocol (−60 mV to 0 mV), Cas 100 nM to 1 µM (37% at 100 nM, 70% at 300 nM, 80% at 1 µM) [8]?
Answer: The percent inhibition of I (Cav1.2) in transfected HEK-293T cells, one-step protocol (−60 mV to 0 mV), Cas 100 nM to 1 µM (37% at 100 nM, 70% at 300 nM, 80% at 1 µM) was 80%.

Question: What about the degree of inhibition of ICaL by 300 nM Cas, step to 0 mV from −60 mV, stimulation at 0.2 Hz [9] of the same molecule?
Answer: The degree of inhibition of ICaL by 300 nM Cas, step to 0 mV from −60 mV, stimulation at 0.2 Hz was 62%.

Question: And the degree of inhibition of ICaL by 300 nM Cas, step to 0 mV from −60 mV, stimulation at 1 Hz [9]?
Answer: The degree of inhibition of ICaL by 300 nM Cas, step to 0 mV from −60 mV, stimulation at 1 Hz was 63%.

Question: What about the degree of inhibition of ICaL by 300 nM Cas, step to 0 mV from −60 mV, stimulation at 5 Hz [9] of the same molecule?
Answer: The degree of inhibition of ICaL by 300 nM Cas, step to 0 mV from −60 mV, stimulation at 5 Hz was 58%.

Question: And the percent block of Cav1.2-mediated ICaL in Cav1.3−/− SAN myocytes, 300 nM Cas, step to 0 mV from a holding potential of −40 mV [9]?
Answer: Its percent block of Cav1.2-mediated ICaL in Cav1.3−/− SAN myocytes, 300 nM Cas, step to 0 mV from a holding potential of −40 mV is 68%.

Question: And the percent block of Cav1.2-mediated ICaL in Cav1.3−/− SAN myocytes, 300 nM Cas, step to 0 mV from a holding potential of −60 mV [9]?
Answer: The percent block of Cav1.2-mediated ICaL in Cav1.3−/− SAN myocytes, 300 nM Cas, step to 0 mV from a holding potential of −60 mV was 67%.

Question: What about the reduction of total ICaL (I (Cav1.2)+I (Cav1.3)) in wild-type mouse SAN myocytes, voltage clamp, 1 µM Cas [10] of the same molecule?
Answer: The reduction of total ICaL (I (Cav1.2)+I (Cav1.3)) in wild-type mouse SAN myocytes, voltage clamp, 1 µM Cas was 45%.
